Laboratory results published in US20030113711A1, “Protein kinase peptide substrate determination using peptide libraries” (priority 2001, published 2003).

Assays:
[1] = tested on: CC[C@H](C)[C@H](NC(=O)[C@H](CC(=O)O)NC(=O)[C@H](CCC(=O)O)NC(=O)[C@H](CCSC)NC(=O)CNC(=O)CNC(=O)CCCCCNC(=O)CCCC[C@@H]1SC[C@@H]2NC(=O)N[C@@H]21)C(=O)N[C@@H](Cc1ccc(O)cc1)C(=O)N[C@@H](Cc1ccccc1)C(=O)N[C@@H](CCC(=O)O)C(=O)N[C@@H](Cc1ccccc1)C(=O)N[C@@H](CCSC)C(=O)NCC(=O)NCC(=O)N[C@@H](CCCCN)C(=O)N[C@@H](CCCCN)C(=O)N[C@@H](CCCCN)C(N)=O; experiment: Two-substrate kinetic comparison with known substrate, peptide and ATP varied simultaneously; assay type: biochemical; details: other: ErbB-2; peptide and ATP concentrations varied simultaneously, two-substrate fit
Description: (§1) In a separate experiment, the kinetic parameters of both peptide number 1 shown in Table 2, and a peptide with the sequence Biotin-Ahx-G-G-M-E-D-I-Y-F-E-F-M-G-G-K-K-K-amide (SEQ ID NO: 17), which has been previously identified as an ErbB-2 substrate (Jan et. al., (2000), Biochemistry 39: 9786-803), were determined and compared. In this experiment, both peptide and ATP concentrations were varied, and the resulting data was simultaneously fit to an equation representing a two-substrate enzyme reaction using SIGMAPLOT®. Data was collected using the kinases ErbB-2, ErbB-4, and EGFR. The results of this experiment are shown in Table 3 and indicate that for all three kinases tested, peptide number 1 shown in Table 2 is kinetically at least equivalent (based on kcat/Km values) to the known peptide substrate identified by Jan et al.

[2] = tested on: CC[C@H](C)[C@H](NC(=O)[C@H](CCC(=O)O)NC(=O)[C@H](CCC(=O)O)NC(=O)[C@H](Cc1c[nH]cn1)NC(=O)[C@H](C)NC(=O)[C@H](CCCNC(=N)N)NC(=O)CCCCCNC(=O)CCCC[C@@H]1SC[C@@H]2NC(=O)N[C@@H]21)C(=O)N[C@@H](Cc1ccc(O)cc1)C(=O)N[C@@H](Cc1c[nH]cn1)C(=O)N[C@@H](Cc1ccccc1)C(=O)N[C@@H](Cc1ccccc1)C(=O)N[C@@H](Cc1ccccc1)C(=O)N[C@@H](C)C(=O)N[C@@H](CCCCN)C(=O)N[C@@H](CCCCN)C(=O)N[C@@H](CCCCN)C(N)=O; experiment: as above; assay type: biochemical; details: other: ErbB-2; peptide and ATP concentrations varied simultaneously, two-substrate fit
Description: as §1

For ErbB-2 (Homo sapiens), the Km [1] was 157 µM, the kcat [1] was 0.0367 s⁻¹ and the kcat/Km [1] was 233 M⁻¹ s⁻¹. The Km [2] was 58 µM, the kcat [2] was 0.0233 s⁻¹ and the kcat/Km [2] was 417 M⁻¹ s⁻¹.
